Experiments:
GFP-14-3-3β = GFP-14-3-3β co-IP with LC-MS/MS, untreated GFP-14-3-3β versus GFP control (14-3-3 interactome); format: binding, human; conditions: pairwise comparison untreated vs GFP
[1] = tested on: GFP-14-3-3β and its binding proteins; experiment: GFP-14-3-3β co-IP with LC-MS/MS label-free quantification, untreated versus PP1c-treated; set-up: species or system human; conditions: pairwise comparison PP1 vs untreated
[2] = log2 difference, label-free quantification, 3 replicates each

Row | Molecule | Difference (log2), PP1 vs untreated [1] [log2] | Difference (log2), PP1 vs untreated [1, 2] | Difference (log2), untreated vs GFP (GFP-14-3-3β) [log2] | Difference (log2), untreated vs GFP (GFP-14-3-3β; [2])
1 | SPECC1 (protein, UniProt Q5M775 1-1068, looked up) Cytospin-B: MRSAAKPWNPAIRAGGHGPDRVRPLPAASSGMKSSKSSTSLAFESRLSRLKRASSEDTLNKPGSTAASGVVRLKKTATAGAISELTESRLRSGTGAFTTTKRTGIPAPREFSVTVSRERSVPRGPSNPRKSVSSPTSSNTPTPTKHLRTPSTKPKQENEGGEKAALESQVRELLAEAKAKDSEINRLRSELKKYKEKRTLNAEGTDALGPNVDGTSVSPGDTEPMIRALEEKNKNFQKELSDLEEENRVLKEKLIYLEHSPNSEGAASHTGDSSCPTSITQESSFGSPTGNQMSSDIDEYKKNIHGNALRTSGSSSSDVTKASLSPDASDFEHITAETPSRPLSSTSNPFKSSKCSTAGSSPNSVSELSLASLTEKIQKMEENHHSTAEELQATLQELSDQQQMVQELTAENEKLVDEKTILETSFHQHRERAEQLSQENEKLMNLLQERVKNEEPTTQEGKIIELEQKCTGILEQGRFEREKLLNIQQQLTCSLRKVEEENQGALEMIKRLKEENEKLNEFLELERHNNNMMAKTLEECRVTLEGLKMENGSLKSHLQGEKQKATEASAVEQTAESCEVQEMLKVARAEKDLLELSCNELRQELLKANGEIKHVSSLLAKVEKDYSYLKEICDHQAEQLSRTSLKLQEKASESDAEIKDMKETIFELEDQVEQHRAVKLHNNQLISELESSVIKLEEQKSDLERQLKTLTKQMKEETEEWRRFQADLQTAVVVANDIKCEAQQELRTVKRKLLEEEEKNARLQKELGDVQGHGRVVTSRAAPPPVDEEPESSEVDAAGRWPGVCVSRTSPTPPESATTVKSLIKSFDLGRPGGAGQNISVHKTPRSPLSGIPVRTAPAAAVSPMQRHSTYSSVRPASRGVTQRLDLPDLPLSDILKGRTETLKPDPHLRKSPSLESLSRPPSLGFGDTRLLSASTRAWKPQSKLSVERKDPLAALAREYGGSKRNALLKWCQKKTQGYANIDITNFSSSWSDGLAFCALLHTYLPAHIPYQELNSQEKKRNLLLAFEAAESVGIKPSLELSEMLYTDRPDWQSVMQYVAQIYKYFET | -0.005819 | – | 0.2064 | –
2 | BST2 (protein, UniProt Q10589 1-161, looked up) Bone marrow stromal antigen 2: MASTSYDYCRVPMEDGDKRCKLLLGIGILVLLIIVILGVPLIIFTIKANSEACRDGLRAVMECRNVTHLLQQELTEAQKGFQDVEAQAATCNHTVMALMASLDAEKAQGQKKVEELEGEITTLNHKLQDASAEVERLRRENQVLSVRIADKKYYPSSQDSS | – | 1.808 | – | -3.2427
3 | HNRNPM (protein, UniProt P52272 2-730, looked up) Heterogeneous nuclear …: AAGVEAAAEVAATEIKMEEESGAPGVPSGNGAPGPKGEGERPAQNEKRKEKNIKRGGNRFEPYANPTKRYRAFITNIPFDVKWQSLKDLVKEKVGEVTYVELLMDAEGKSRGCAVVEFKMEESMKKAAEVLNKHSLSGRPLKVKEDPDGEHARRAMQKVMATTGGMGMGPGGPGMITIPPSILNNPNIPNEIIHALQAGRLGSTVFVANLDYKVGWKKLKEVFSMAGVVVRADILEDKDGKSRGIGTVTFEQSIEAVQAISMFNGQLLFDRPMHVKMDERALPKGDFFPPERPQQLPHGLGGIGMGLGPGGQPIDANHLNKGIGMGNIGPAGMGMEGIGFGINKMGGMEGPFGGGMENMGRFGSGMNMGRINEILSNALKRGEIIAKQGGGGGGGSVPGIERMGPGIDRLGGAGMERMGAGLGHGMDRVGSEIERMGLVMDRMGSVERMGSGIERMGPLGLDHMASSIERMGQTMERIGSGVERMGAGMGFGLERMAAPIDRVGQTIERMGSGVERMGPAIERMGLSMERMVPAGMGAGLERMGPVMDRMATGLERMGANNLERMGLERMGANSLERMGLERMGANSLERMGPAMGPALGAGIERMGLAMGGGGGASFDRAIEMERGNFGGSFAGSFGGAGGHAPGVARKACQIFVRNLPFDFTWKMLKDKFNECGHVLYADIKMENGKSKGCGVVKFESPEVAERACRMMNGMKLSGREIDVRIDRNA | -0.01052 | – | 0.1311 | –

The next lines start with results.

Row | Difference (log2), PP1 vs untreated [1] [log2] | Difference (log2), PP1 vs untreated [1, 2] | Molecule | Difference (log2), untreated vs GFP (GFP-14-3-3β) [log2] | Difference (log2), untreated vs GFP (GFP-14-3-3β; [2])
4 | -0.03585 | – | FARP1 (protein, UniProt Q9Y4F1 1-1045, looked up) FERM, ARHGEF and pleckstrin …: MGEIEQRPTPGSRLGAPENSGISTLERGQKPPPTPSGKLVSIKIQMLDDTQEAFEVPQRAPGKVLLDAVCNHLNLVEGDYFGLEFPDHKKITVWLDLLKPIVKQIRRPKHVVVKFVVKFFPPDHTQLQEELTRYLFALQVKQDLAQGRLTCNDTSAALLISHIVQSEIGDFDEALDREHLAKNKYIPQQDALEDKIVEFHHNHIGQTPAESDFQLLEIARRLEMYGIRLHPAKDREGTKINLAVANTGILVFQGFTKINAFNWAKVRKLSFKRKRFLIKLRPDANSAYQDTLEFLMASRDFCKSFWKICVEHHAFFRLFEEPKPKPKPVLFSRGSSFRFSGRTQKQVLDYVKEGGHKKVQFERKHSKIHSIRSLASQPTELNSEVLEQSQQSTSLTFGEGAESPGGQSCRRGKEPKVSAGEPGSHPSPAPRRSPAGNKQADGAASAPTEEEEEVVKDRTQQSKPQPPQPSTGSLTGSPHLSELSVNSQGGVAPANVTLSPNLSPDTKQASPLISPLLNDQACPRTDDEDEGRRKRFPTDKAYFIAKEVSTTERTYLKDLEVITSWFQSTVSKEDAMPEALKSLIFPNFEPLHKFHTNFLKEIEQRLALWEGRSNAQIRDYQRIGDVMLKNIQGMKHLAAHLWKHSEALEALENGIKSSRRLENFCRDFELQKVCYLPLNTFLLRPLHRLMHYKQVLERLCKHHPPSHADFRDCRAALAEITEMVAQLHGTMIKMENFQKLHELKKDLIGIDNLVVPGREFIRLGSLSKLSGKGLQQRMFFLFNDVLLYTSRGLTASNQFKVHGQLPLYGMTIEESEDEWGVPHCLTLRGQRQSIIVAASSRSEMEKWVEDIQMAIDLAEKSSSPAPEFLASSPPDNKSPDEATAADQESEDDLSASRTSLERQAPHRGNTMVHVCWHRNTSVSMVDFSIAVENQLSGNLLRKFKNSNGWQKLWVVFTNFCLFFYKSHQDNHPLASLPLLGYSLTIPSESENIQKDYVFKLHFKSHVYYFRAESEYTFERWMEVIRSATSSASRPHVLSHKESLVY | 0.5364 | –
5 | -0.02668 | – | SLC1A5 (protein, UniProt Q15758 1-541, looked up) Neutral amino acid …: MVADPPRDSKGLAAAEPTANGGLALASIEDQGAAAGGYCGSRDQVRRCLRANLLVLLTVVAVVAGVALGLGVSGAGGALALGPERLSAFVFPGELLLRLLRMIILPLVVCSLIGGAASLDPGALGRLGAWALLFFLVTTLLASALGVGLALALQPGAASAAINASVGAAGSAENAPSKEVLDSFLDLARNIFPSNLVSAAFRSYSTTYEERNITGTRVKVPVGQEVEGMNILGLVVFAIVFGVALRKLGPEGELLIRFFNSFNEATMVLVSWIMWYAPVGIMFLVAGKIVEMEDVGLLFARLGKYILCCLLGHAIHGLLVLPLIYFLFTRKNPYRFLWGIVTPLATAFGTSSSSATLPLMMKCVEENNGVAKHISRFILPIGATVNMDGAALFQCVAAVFIAQLSQQSLDFVKIITILVTATASSVGAAGIPAGGVLTLAIILEAVNLPVDHISLILAVDWLVDRSCTVLNVEGDALGAGLLQNYVDRTESRSTEPELIQVKSELPLDPLPVPTEEGNPLLKHYRGPAGDATVASEKESVM | 0.7589 | –
6 | -0.03516 | – | TUBB6 (protein, UniProt Q9BUF5 1-446, looked up) Tubulin beta-6 chain: MREIVHIQAGQCGNQIGTKFWEVISDEHGIDPAGGYVGDSALQLERINVYYNESSSQKYVPRAALVDLEPGTMDSVRSGPFGQLFRPDNFIFGQTGAGNNWAKGHYTEGAELVDAVLDVVRKECEHCDCLQGFQLTHSLGGGTGSGMGTLLISKIREEFPDRIMNTFSVMPSPKVSDTVVEPYNATLSVHQLVENTDETYCIDNEALYDICFRTLKLTTPTYGDLNHLVSATMSGVTTSLRFPGQLNADLRKLAVNMVPFPRLHFFMPGFAPLTSRGSQQYRALTVPELTQQMFDARNMMAACDPRHGRYLTVATVFRGPMSMKEVDEQMLAIQSKNSSYFVEWIPNNVKVAVCDIPPRGLKMASTFIGNSTAIQELFKRISEQFSAMFRRKAFLHWFTGEGMDEMEFTEAESNMNDLVSEYQQYQDATANDGEEAFEDEEEEIDG | -0.8713 | –
7 | -0.04086 | – | SNRPA1 (protein, UniProt P09661 2-255, looked up) U2 small nuclear …: VKLTAELIEQAAQYTNAVRDRELDLRGYKIPVIENLGATLDQFDAIDFSDNEIRKLDGFPLLRRLKTLLVNNNRICRIGEGLDQALPCLTELILTNNSLVELGDLDPLASLKSLTYLSILRNPVTNKKHYRLYVIYKVPQVRVLDFQKVKLKERQEAEKMFKGKRGAQLAKDIARRSKTFNPGAGLPTDKKKGGPSPGDVEAIKNAIANASTLAEVERLKGLLQSGQIPGRERRSGPTDDGEEEMEEDTVTNGS | 0.8199 | –
8 | -0.01679 | – | DNAJC10 (protein, UniProt Q8IXB1 33-793, looked up) DnaJ homolog subfamily C …: DQDFYSLLGVSKTASSREIRQAFKKLALKLHPDKNPNNPNAHGDFLKINRAYEVLKDEDLRKKYDKYGEKGLEDNQGGQYESWNYYRYDFGIYDDDPEIITLERREFDAAVNSGELWFVNFYSPGCSHCHDLAPTWRDFAKEVDGLLRIGAVNCGDDRMLCRMKGVNSYPSLFIFRSGMAPVKYHGDRSKESLVSFAMQHVRSTVTELWTGNFVNSIQTAFAAGIGWLITFCSKGGDCLTSQTRLRLSGMLDGLVNVGWMDCATQDNLCKSLDITTSTTAYFPPGATLNNKEKNSILFLNSLDAKEIYLEVIHNLPDFELLSANTLEDRLAHHRWLLFFHFGKNENSNDPELKKLKTLLKNDHIQVGRFDCSSAPDICSNLYVFQPSLAVFKGQGTKEYEIHHGKKILYDILAFAKESVNSHVTTLGPQNFPANDKEPWLVDFFAPWCPPCRALLPELRRASNLLYGQLKFGTLDCTVHEGLCNMYNIQAYPTTVVFNQSNIHEYEGHHSAEQILEFIEDLMNPSVVSLTPTTFNELVTQRKHNEVWMVDFYSPWCHPCQVLMPEWKRMARTLTGLINVGSIDCQQYHSFCAQENVQRYPEIRFFPPKSNKAYHYHSYNGWNRDAYSLRIWGLGFLPQVSTDLTPQTFSEKVLQGKNHWVIDFYAPWCGPCQNFAPEFELLARMIKGKVKAGKVDCQAYAQTCQKAGIRAYPTVKFYFYERAKRNFQEEQINTRDAKAIAALISEKLETLRNQGKRNKDEL | 0.1892 | –

From paper PMC7367873, “Dissecting the sequence determinants for dephosphorylation by the catalytic subunits of phosphatases PP1 and PP2A” (Nature Communications, 2020)
